B1: CPEB3 Ribozyme (parent)
chain: UAACAGGGGGCCACAGCAGAAGCGUUCACGUCGCAGCCCCUGUCAGAUUCUGGUGAAUCUGCGAAUUCUGCUGUAUAUCUC

Variants of: B1
Assay: self-cleavage, relative activity (ratio to wild type); higher = more cleavage; in vitro, sequencing
Summary of the method: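 CPEB3 self-cleaving ribozyme mutant libraries were made by rounds of error-prone PCR, barcoded, and transcribed in vitro with T7 RNA polymerase for 5 hours at 37°C. Cleavage occurred during transcription and a 15 min DNase I step before EDTA stop. RNAs were reverse transcribed with template switching and Illumina-sequenced, with DNA sequencing mapping barcodes to variants. Relative activity is the variant's cleaved/total read fraction divided by wild type's (minimum 5 reads), averaged across three batches.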

Point of comparison: UAACAGGGGGCCACAGCAGAUGCGUUCACGUCGCAGCCUCUGUCAGAUUCUGGUGAAUCUGCGAAUUCUGCUGUAUAUCUC [A21U C39U], self-cleavage 0.2. Against it:
- UAACAGGGGGCCACAGCAGAUGCGUUCACGUCGCAGCCCCUGUCAGAUUCUGGUGUAUCUGCGAAUUCUGCUGUAUAUCUC [A21U A56U] — the same, 0.2
- UAACAGGGGGCCACAGCAGAUGCGUUCACGUCGCAGCCCCUGUCAGAUUCUGGUGAGUCUGCGAAUUCUGCUGUAUAUCUC [A21U A57G] — higher, 0.33
- UAACAGGGGGCCACAGCAGAUGCGUUCACGUCGCAGCCCCUGUCAGAUUCUGGUGAAUCUGCGGAUUCUGCUGUAUAUCUC [A21U A64G] — lower, 0.18
- UAACAGGGGGCCACAGCAGAUGCGUUCACGUCGCAGCCCCUGUCAGAUUCUGGUGAAUCUGCGUAUUCUGCUGUAUAUCUC [A21U A64U] — lower, 0.13
- UAACAGGGGGCCACAGCAGAUGCGUUCACGUCGCAGCCCCUGUCAGAUUCUGGUGAAUCUGCGAGUUCUGCUGUAUAUCUC [A21U A65G] — higher, 0.34
- UAACAGGGGGCCACAGCAGAUGCGUUCACGUCGCAGCCCCUGUCAGAUUCUGGUGAAUCUGCGAAUUCUGCUGUGUAUCUC [A21U A75G] — higher, 0.27
- UAACAGGGGGCCACAGCAGAUGCGUUCACGUCGCAGCCCCUGUCAGAUUCUGGUGAAUCUGCGAAUUCUGCUGUUUAUCUC [A21U A75U] — higher, 0.37
- UAACAGGGGGCCACAGCAGAUGCGUUCACGUCGCAGCCCCUGUCAGAUUCUGGUGAAUCUGCGAAUUCUGCUGUAUGUCUC [A21U A77G] — higher, 0.37
- UAACAGGGGGCCACAGCAGAUGAGUUCACGUCGCAGCCCCUGUCAGAUUCUGGUGAAUCUGCGAAUUCUGCUGUAUAUCUC [A21U C23A] — higher, 0.22
- UAACAGGGGGCCACAGCAGAUGGGUUCACGUCGCAGCCCCUGUCAGAUUCUGGUGAAUCUGCGAAUUCUGCUGUAUAUCUC [A21U C23G] — lower, 0.07
- UAACAGGGGGCCACAGCAGAUGUGUUCACGUCGCAGCCCCUGUCAGAUUCUGGUGAAUCUGCGAAUUCUGCUGUAUAUCUC [A21U C23U] — higher, 0.24
- UAACAGGGGGCCACAGCAGAUGCGUUGACGUCGCAGCCCCUGUCAGAUUCUGGUGAAUCUGCGAAUUCUGCUGUAUAUCUC [A21U C27G] — lower, 0.07
- UAACAGGGGGCCACAGCAGAUGCGUUUACGUCGCAGCCCCUGUCAGAUUCUGGUGAAUCUGCGAAUUCUGCUGUAUAUCUC [A21U C27U] — lower, 0.14
- UAACAGGGGGCCACAGCAGAUGCGUUCAAGUCGCAGCCCCUGUCAGAUUCUGGUGAAUCUGCGAAUUCUGCUGUAUAUCUC [A21U C29A] — higher, 0.21
- UAACAGGGGGCCACAGCAGAUGCGUUCAUGUCGCAGCCCCUGUCAGAUUCUGGUGAAUCUGCGAAUUCUGCUGUAUAUCUC [A21U C29U] — higher, 0.3
- UAACAGGGGGCCACAGCAGAUGCGUUCACGUAGCAGCCCCUGUCAGAUUCUGGUGAAUCUGCGAAUUCUGCUGUAUAUCUC [A21U C32A] — lower, 0.14
- UAACAGGGGGCCACAGCAGAUGCGUUCACGUCGCAGUCCCUGUCAGAUUCUGGUGAAUCUGCGAAUUCUGCUGUAUAUCUC [A21U C37U] — lower, 0.18
- UAACAGGGGGCCACAGCAGAUGCGUUCACGUCGCAGCUCCUGUCAGAUUCUGGUGAAUCUGCGAAUUCUGCUGUAUAUCUC [A21U C38U] — higher, 0.29
- UAACAGGGGGCCACAGCAGAUGCGUUCACGUCGCAGCCACUGUCAGAUUCUGGUGAAUCUGCGAAUUCUGCUGUAUAUCUC [A21U C39A] — higher, 0.31
- UAACAGGGGGCCACAGCAGAUGCGUUCACGUCGCAGCCCUUGUCAGAUUCUGGUGAAUCUGCGAAUUCUGCUGUAUAUCUC [A21U C40U] — lower, 0.15
- UAACAGGGGGCCACAGCAGAUGCGUUCACGUCGCAGCCCCUGUAAGAUUCUGGUGAAUCUGCGAAUUCUGCUGUAUAUCUC [A21U C44A] — lower, 0.11
- UAACAGGGGGCCACAGCAGAUGCGUUCACGUCGCAGCCCCUGUCAGAUUAUGGUGAAUCUGCGAAUUCUGCUGUAUAUCUC [A21U C50A] — lower, 0.18
- UAACAGGGGGCCACAGCAGAUGCGUUCACGUCGCAGCCCCUGUCAGAUUUUGGUGAAUCUGCGAAUUCUGCUGUAUAUCUC [A21U C50U] — higher, 0.4
- UAACAGGGGGCCACAGCAGAUGCGUUCACGUCGCAGCCCCUGUCAGAUUCUGGUGAAUCUGUGAAUUCUGCUGUAUAUCUC [A21U C62U] — lower, 0.01
- UAACAGGGGGCCACAGCAGAUGCGUUCACGUCGCAGCCCCUGUCAGAUUCUGGUGAAUCUGCGAAUUAUGCUGUAUAUCUC [A21U C68A] — higher, 0.32
- UAACAGGGGGCCACAGCAGAUGCGUUCACGUCGCAGCCCCUGUCAGAUUCUGGUGAAUCUGCGAAUUUUGCUGUAUAUCUC [A21U C68U] — higher, 0.44
- UAACAGGGGGCCACAGCAGAUGCGUUCACGUCGCAGCCCCUGUCAGAUUCUGGUGAAUCUGCGAAUUCUGGUGUAUAUCUC [A21U C71G] — lower, 0.09
- UAACAGGGGGCCACAGCAGAUGCGUUCACGUCGCAGCCCCUGUCAGAUUCUGGUGAAUCUGCGAAUUCUGUUGUAUAUCUC [A21U C71U] — lower, 0.16
- UAACAGGGGGCCACAGCAGAUGCGUUCACGUCGCAGCCCCUGUCAGAUUCUGGUGAAUCUGCGAAUUCUGCUGUAUAUCUA [A21U C81A] — higher, 0.45
- UAACAGGGGGCCACAGCAGAUGCGUUCACGUCGCAGCCCCUGUCAGAUUCUGGUGAAUCUGCGAAUUCUGCUGUAUAUCUU [A21U C81U] — higher, 0.29
- UAACAGGGGGCCACAGCAGAUACGUUCACGUCGCAGCCCCUGUCAGAUUCUGGUGAAUCUGCGAAUUCUGCUGUAUAUCUC [A21U G22A] — higher, 0.29
- UAACAGGGGGCCACAGCAGAUGCAUUCACGUCGCAGCCCCUGUCAGAUUCUGGUGAAUCUGCGAAUUCUGCUGUAUAUCUC [A21U G24A] — higher, 0.33
- UAACAGGGGGCCACAGCAGAUGCGUUCACAUCGCAGCCCCUGUCAGAUUCUGGUGAAUCUGCGAAUUCUGCUGUAUAUCUC [A21U G30A] — lower, 0.1

Source: the RNAGym collection of RNA variant scans (doi:10.1093/nar/gkz1192)
